Experiments:
[1] = molecular target: synaptotagmin-1, intact 65 kDa protein (rat) (UniProt P21707)
[2] = system: GST-synaptotagmin recombinant protein [GST: P08515]
[3] = molecular target: collapsin response mediator protein-2, intact (rat) (UniProt P47942)
[4] = system: GST-CRMP2 recombinant protein (Kinasource, cat# SU-040) [GST: P08515]
Chain of GST-CRMP2 recombinant protein (Kinasource, cat# SU-040) [GST: P08515] (P08515 whole entry, looked up): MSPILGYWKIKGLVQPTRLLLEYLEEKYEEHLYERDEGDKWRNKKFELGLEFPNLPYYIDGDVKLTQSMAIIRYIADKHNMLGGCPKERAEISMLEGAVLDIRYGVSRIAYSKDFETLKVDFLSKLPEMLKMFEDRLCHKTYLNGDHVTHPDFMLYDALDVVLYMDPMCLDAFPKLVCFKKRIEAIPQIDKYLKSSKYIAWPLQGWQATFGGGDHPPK

Chain of synaptotagmin-1, intact 65 kDa protein (rat) (P21707 whole entry): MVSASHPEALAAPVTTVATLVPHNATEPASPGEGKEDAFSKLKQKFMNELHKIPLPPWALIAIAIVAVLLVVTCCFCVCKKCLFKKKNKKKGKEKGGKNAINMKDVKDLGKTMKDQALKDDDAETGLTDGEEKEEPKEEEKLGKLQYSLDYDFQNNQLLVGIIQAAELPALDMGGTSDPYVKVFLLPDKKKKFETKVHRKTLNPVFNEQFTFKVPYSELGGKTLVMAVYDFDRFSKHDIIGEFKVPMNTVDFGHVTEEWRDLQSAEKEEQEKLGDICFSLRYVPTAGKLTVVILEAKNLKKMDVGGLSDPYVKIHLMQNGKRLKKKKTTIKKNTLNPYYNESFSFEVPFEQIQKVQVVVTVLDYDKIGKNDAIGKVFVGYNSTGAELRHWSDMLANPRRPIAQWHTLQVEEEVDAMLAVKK
Chain of GST-synaptotagmin recombinant protein [GST: P08515] (P08515 whole entry, looked up): as the sequence (P08515 whole entry, looked up) above

Row | Substance | in vitro protease digestion, Western blot [1] | in vitro digestion of the recombinant protein, Western blot [2] | in vitro protease digestion of naive brain lysate, Western blot [3] | in vitro digestion of the purified protein, Coomassie and Western blot [4]
1 | cathepsin B | Overall, Syt1 was relatively resistant to these proteases and under no conditions was the TBI-associated characteristic BDP-33k detected (results not shown). |  |  | 
2 | MMP-2 | Overall, Syt1 was relatively resistant to these proteases and under no conditions was the TBI-associated characteristic BDP-33k detected (results not shown). |  |  | 
3 | MMP-9 | Overall, Syt1 was relatively resistant to these proteases and under no conditions was the TBI-associated characteristic BDP-33k detected (results not shown). |  |  | 
4 | calpain (purified; isoform not named where the result is told) |  | The recombinant synaptotagmin was cleaved in vitro to a 21 kDa BDP as detected with anti-GST. | in vitro calpain treatment of naive brain lysate resulted in the same fragmentation pattern observed after TBI in vivo, with the 62 kDa and 66 kDa intact CRMP-2 bands disappearing | purified GST-CRMP-2 protein digested by calpain. The obtained cleavage fragments were used to determine the calpain cleavage site.
5 | cathepsin D | Overall, Syt1 was relatively resistant to these proteases and under no conditions was the TBI-associated characteristic BDP-33k detected (results not shown). |  |  | 

From US20120196307
